Target: optineurin, C-terminal myc-FLAG-tagged (UniProt Q96CV9 1-577)
Assay: co-IP

Chain of optineurin, C-terminal myc-FLAG-tagged (Q96CV9 whole entry): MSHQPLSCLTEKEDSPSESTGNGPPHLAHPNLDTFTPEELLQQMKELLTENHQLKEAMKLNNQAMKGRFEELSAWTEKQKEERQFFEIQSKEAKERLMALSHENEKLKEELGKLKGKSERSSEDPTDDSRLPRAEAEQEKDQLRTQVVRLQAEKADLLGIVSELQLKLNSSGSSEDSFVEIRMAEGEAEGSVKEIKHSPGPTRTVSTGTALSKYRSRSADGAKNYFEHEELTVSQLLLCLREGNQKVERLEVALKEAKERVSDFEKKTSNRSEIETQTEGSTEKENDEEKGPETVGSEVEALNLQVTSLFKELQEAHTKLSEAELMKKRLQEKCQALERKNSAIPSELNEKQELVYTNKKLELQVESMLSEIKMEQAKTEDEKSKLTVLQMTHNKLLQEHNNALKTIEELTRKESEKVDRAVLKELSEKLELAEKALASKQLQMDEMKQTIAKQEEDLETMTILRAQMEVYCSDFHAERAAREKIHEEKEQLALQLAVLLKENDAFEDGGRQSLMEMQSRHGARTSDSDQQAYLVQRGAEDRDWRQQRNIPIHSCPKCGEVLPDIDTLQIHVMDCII

Binder | TBK1 bound to OPTN relative to wild type
TBK1 I710N, untagged (natural protein, human, UniProt Q9UHD2 1-729, looked up) MQSTSNHLWLLSDILGQGATANVFRGRHKKTGDLFAIKVFNNISFLRPVDVQMREFEVLKKLNHKNIVKLFAIEEETTTRHKVLIMEFCPCGSLYTVLEEPSNAYGLPESEFLIVLRDVVGGMNHLRENGIVHRDIKPGNIMRVIGEDGQSVYKLTDFGAARELEDDEQFVSLYGTEEYLHPDMYERAVLRKDHQKKYGATVDLWSIGVTFYHAATGSLPFRPFEGPRRNKEVMYKIITGKPSGAISGVQKAENGPIDWSGDMPVSCSLSRGLQVLLTPVLANILEADQEKCWGFDQFFAETSDILHRMVIHVFSLQQMTAHKIYIHSYNTATIFHELVYKQTKIISSNQELIYEGRRLVLEPGRLAQHFPKTTEENPIFVVSREPLNTIGLIYEKISLPKVHPRYDLDGDASMAKAITGVVCYACRIASTLLLYQELMRKGIRWLIELIKDDYNETVHKKTEVVITLDFCIRNIEKTVKVYEKLMKINLEAAELGEISDIHTKLLRLSSSQGTIETSLQDIDSRLSPGGSLADAWAHQEGTHPKDRNVEKLQVLLNCMTEIYYQFKKDKAERRLAYNEEQIHKFDKQKLYYHATKAMTHFTDECVKKYEAFLNKSEEWIRKMLHLRKQLLSLTNQCFDIEEEVSKYQEYTNELQETLPQKMFTASSGIKHTMTPIYPSSNTLVEMTLGMKKLKEEMEGVVKELAENNHNLERFGSLTMDGGLRNVDCL | 0.07 relative to TBK1 WT
TBK1 L94S, untagged (natural protein, human, UniProt Q9UHD2 1-729, looked up) MQSTSNHLWLLSDILGQGATANVFRGRHKKTGDLFAIKVFNNISFLRPVDVQMREFEVLKKLNHKNIVKLFAIEEETTTRHKVLIMEFCPCGSSYTVLEEPSNAYGLPESEFLIVLRDVVGGMNHLRENGIVHRDIKPGNIMRVIGEDGQSVYKLTDFGAARELEDDEQFVSLYGTEEYLHPDMYERAVLRKDHQKKYGATVDLWSIGVTFYHAATGSLPFRPFEGPRRNKEVMYKIITGKPSGAISGVQKAENGPIDWSGDMPVSCSLSRGLQVLLTPVLANILEADQEKCWGFDQFFAETSDILHRMVIHVFSLQQMTAHKIYIHSYNTATIFHELVYKQTKIISSNQELIYEGRRLVLEPGRLAQHFPKTTEENPIFVVSREPLNTIGLIYEKISLPKVHPRYDLDGDASMAKAITGVVCYACRIASTLLLYQELMRKGIRWLIELIKDDYNETVHKKTEVVITLDFCIRNIEKTVKVYEKLMKINLEAAELGEISDIHTKLLRLSSSQGTIETSLQDIDSRLSPGGSLADAWAHQEGTHPKDRNVEKLQVLLNCMTEIYYQFKKDKAERRLAYNEEQIHKFDKQKLYYHATKAMTHFTDECVKKYEAFLNKSEEWIRKMLHLRKQLLSLTNQCFDIEEEVSKYQEYTNELQETLPQKMFTASSGIKHTMTPIYPSSNTLVEMTLGMKKLKEEMEGVVKELAENNHILERFGSLTMDGGLRNVDCL | 0.04 relative to TBK1 WT
TBK1 Q581H, untagged (natural protein, human, UniProt Q9UHD2 1-729, looked up) MQSTSNHLWLLSDILGQGATANVFRGRHKKTGDLFAIKVFNNISFLRPVDVQMREFEVLKKLNHKNIVKLFAIEEETTTRHKVLIMEFCPCGSLYTVLEEPSNAYGLPESEFLIVLRDVVGGMNHLRENGIVHRDIKPGNIMRVIGEDGQSVYKLTDFGAARELEDDEQFVSLYGTEEYLHPDMYERAVLRKDHQKKYGATVDLWSIGVTFYHAATGSLPFRPFEGPRRNKEVMYKIITGKPSGAISGVQKAENGPIDWSGDMPVSCSLSRGLQVLLTPVLANILEADQEKCWGFDQFFAETSDILHRMVIHVFSLQQMTAHKIYIHSYNTATIFHELVYKQTKIISSNQELIYEGRRLVLEPGRLAQHFPKTTEENPIFVVSREPLNTIGLIYEKISLPKVHPRYDLDGDASMAKAITGVVCYACRIASTLLLYQELMRKGIRWLIELIKDDYNETVHKKTEVVITLDFCIRNIEKTVKVYEKLMKINLEAAELGEISDIHTKLLRLSSSQGTIETSLQDIDSRLSPGGSLADAWAHQEGTHPKDRNVEKLQVLLNCMTEIYYQFKKDKAERRLAYNEEHIHKFDKQKLYYHATKAMTHFTDECVKKYEAFLNKSEEWIRKMLHLRKQLLSLTNQCFDIEEEVSKYQEYTNELQETLPQKMFTASSGIKHTMTPIYPSSNTLVEMTLGMKKLKEEMEGVVKELAENNHILERFGSLTMDGGLRNVDCL | 0.2 relative to TBK1 WT
TBK1 R47H, untagged (natural protein, human, UniProt Q9UHD2 1-729, looked up) MQSTSNHLWLLSDILGQGATANVFRGRHKKTGDLFAIKVFNNISFLHPVDVQMREFEVLKKLNHKNIVKLFAIEEETTTRHKVLIMEFCPCGSLYTVLEEPSNAYGLPESEFLIVLRDVVGGMNHLRENGIVHRDIKPGNIMRVIGEDGQSVYKLTDFGAARELEDDEQFVSLYGTEEYLHPDMYERAVLRKDHQKKYGATVDLWSIGVTFYHAATGSLPFRPFEGPRRNKEVMYKIITGKPSGAISGVQKAENGPIDWSGDMPVSCSLSRGLQVLLTPVLANILEADQEKCWGFDQFFAETSDILHRMVIHVFSLQQMTAHKIYIHSYNTATIFHELVYKQTKIISSNQELIYEGRRLVLEPGRLAQHFPKTTEENPIFVVSREPLNTIGLIYEKISLPKVHPRYDLDGDASMAKAITGVVCYACRIASTLLLYQELMRKGIRWLIELIKDDYNETVHKKTEVVITLDFCIRNIEKTVKVYEKLMKINLEAAELGEISDIHTKLLRLSSSQGTIETSLQDIDSRLSPGGSLADAWAHQEGTHPKDRNVEKLQVLLNCMTEIYYQFKKDKAERRLAYNEEQIHKFDKQKLYYHATKAMTHFTDECVKKYEAFLNKSEEWIRKMLHLRKQLLSLTNQCFDIEEEVSKYQEYTNELQETLPQKMFTASSGIKHTMTPIYPSSNTLVEMTLGMKKLKEEMEGVVKELAENNHILERFGSLTMDGGLRNVDCL | 3.23 relative to TBK1 WT
TBK1 Q565P, untagged (natural protein, human, UniProt Q9UHD2 1-729, looked up) MQSTSNHLWLLSDILGQGATANVFRGRHKKTGDLFAIKVFNNISFLRPVDVQMREFEVLKKLNHKNIVKLFAIEEETTTRHKVLIMEFCPCGSLYTVLEEPSNAYGLPESEFLIVLRDVVGGMNHLRENGIVHRDIKPGNIMRVIGEDGQSVYKLTDFGAARELEDDEQFVSLYGTEEYLHPDMYERAVLRKDHQKKYGATVDLWSIGVTFYHAATGSLPFRPFEGPRRNKEVMYKIITGKPSGAISGVQKAENGPIDWSGDMPVSCSLSRGLQVLLTPVLANILEADQEKCWGFDQFFAETSDILHRMVIHVFSLQQMTAHKIYIHSYNTATIFHELVYKQTKIISSNQELIYEGRRLVLEPGRLAQHFPKTTEENPIFVVSREPLNTIGLIYEKISLPKVHPRYDLDGDASMAKAITGVVCYACRIASTLLLYQELMRKGIRWLIELIKDDYNETVHKKTEVVITLDFCIRNIEKTVKVYEKLMKINLEAAELGEISDIHTKLLRLSSSQGTIETSLQDIDSRLSPGGSLADAWAHQEGTHPKDRNVEKLQVLLNCMTEIYYPFKKDKAERRLAYNEEQIHKFDKQKLYYHATKAMTHFTDECVKKYEAFLNKSEEWIRKMLHLRKQLLSLTNQCFDIEEEVSKYQEYTNELQETLPQKMFTASSGIKHTMTPIYPSSNTLVEMTLGMKKLKEEMEGVVKELAENNHILERFGSLTMDGGLRNVDCL | 0.14 relative to TBK1 WT
TBK1 R440Q, untagged (natural protein, human, UniProt Q9UHD2 1-729, looked up) MQSTSNHLWLLSDILGQGATANVFRGRHKKTGDLFAIKVFNNISFLRPVDVQMREFEVLKKLNHKNIVKLFAIEEETTTRHKVLIMEFCPCGSLYTVLEEPSNAYGLPESEFLIVLRDVVGGMNHLRENGIVHRDIKPGNIMRVIGEDGQSVYKLTDFGAARELEDDEQFVSLYGTEEYLHPDMYERAVLRKDHQKKYGATVDLWSIGVTFYHAATGSLPFRPFEGPRRNKEVMYKIITGKPSGAISGVQKAENGPIDWSGDMPVSCSLSRGLQVLLTPVLANILEADQEKCWGFDQFFAETSDILHRMVIHVFSLQQMTAHKIYIHSYNTATIFHELVYKQTKIISSNQELIYEGRRLVLEPGRLAQHFPKTTEENPIFVVSREPLNTIGLIYEKISLPKVHPRYDLDGDASMAKAITGVVCYACRIASTLLLYQELMQKGIRWLIELIKDDYNETVHKKTEVVITLDFCIRNIEKTVKVYEKLMKINLEAAELGEISDIHTKLLRLSSSQGTIETSLQDIDSRLSPGGSLADAWAHQEGTHPKDRNVEKLQVLLNCMTEIYYQFKKDKAERRLAYNEEQIHKFDKQKLYYHATKAMTHFTDECVKKYEAFLNKSEEWIRKMLHLRKQLLSLTNQCFDIEEEVSKYQEYTNELQETLPQKMFTASSGIKHTMTPIYPSSNTLVEMTLGMKKLKEEMEGVVKELAENNHILERFGSLTMDGGLRNVDCL | 0.17 relative to TBK1 WT
TBK1 M559R, untagged (natural protein, human, UniProt Q9UHD2 1-729, looked up) MQSTSNHLWLLSDILGQGATANVFRGRHKKTGDLFAIKVFNNISFLRPVDVQMREFEVLKKLNHKNIVKLFAIEEETTTRHKVLIMEFCPCGSLYTVLEEPSNAYGLPESEFLIVLRDVVGGMNHLRENGIVHRDIKPGNIMRVIGEDGQSVYKLTDFGAARELEDDEQFVSLYGTEEYLHPDMYERAVLRKDHQKKYGATVDLWSIGVTFYHAATGSLPFRPFEGPRRNKEVMYKIITGKPSGAISGVQKAENGPIDWSGDMPVSCSLSRGLQVLLTPVLANILEADQEKCWGFDQFFAETSDILHRMVIHVFSLQQMTAHKIYIHSYNTATIFHELVYKQTKIISSNQELIYEGRRLVLEPGRLAQHFPKTTEENPIFVVSREPLNTIGLIYEKISLPKVHPRYDLDGDASMAKAITGVVCYACRIASTLLLYQELMRKGIRWLIELIKDDYNETVHKKTEVVITLDFCIRNIEKTVKVYEKLMKINLEAAELGEISDIHTKLLRLSSSQGTIETSLQDIDSRLSPGGSLADAWAHQEGTHPKDRNVEKLQVLLNCRTEIYYQFKKDKAERRLAYNEEQIHKFDKQKLYYHATKAMTHFTDECVKKYEAFLNKSEEWIRKMLHLRKQLLSLTNQCFDIEEEVSKYQEYTNELQETLPQKMFTASSGIKHTMTPIYPSSNTLVEMTLGMKKLKEEMEGVVKELAENNHILERFGSLTMDGGLRNVDCL | 0.05 relative to TBK1 WT
TBK1 R134H, untagged (natural protein, human, UniProt Q9UHD2 1-729, looked up) MQSTSNHLWLLSDILGQGATANVFRGRHKKTGDLFAIKVFNNISFLRPVDVQMREFEVLKKLNHKNIVKLFAIEEETTTRHKVLIMEFCPCGSLYTVLEEPSNAYGLPESEFLIVLRDVVGGMNHLRENGIVHHDIKPGNIMRVIGEDGQSVYKLTDFGAARELEDDEQFVSLYGTEEYLHPDMYERAVLRKDHQKKYGATVDLWSIGVTFYHAATGSLPFRPFEGPRRNKEVMYKIITGKPSGAISGVQKAENGPIDWSGDMPVSCSLSRGLQVLLTPVLANILEADQEKCWGFDQFFAETSDILHRMVIHVFSLQQMTAHKIYIHSYNTATIFHELVYKQTKIISSNQELIYEGRRLVLEPGRLAQHFPKTTEENPIFVVSREPLNTIGLIYEKISLPKVHPRYDLDGDASMAKAITGVVCYACRIASTLLLYQELMRKGIRWLIELIKDDYNETVHKKTEVVITLDFCIRNIEKTVKVYEKLMKINLEAAELGEISDIHTKLLRLSSSQGTIETSLQDIDSRLSPGGSLADAWAHQEGTHPKDRNVEKLQVLLNCMTEIYYQFKKDKAERRLAYNEEQIHKFDKQKLYYHATKAMTHFTDECVKKYEAFLNKSEEWIRKMLHLRKQLLSLTNQCFDIEEEVSKYQEYTNELQETLPQKMFTASSGIKHTMTPIYPSSNTLVEMTLGMKKLKEEMEGVVKELAENNHILERFGSLTMDGGLRNVDCL | 2.53 relative to TBK1 WT

Source: doi:10.1101/2022.06.02.494603 (bioRxiv, 2022)
